Assay results reported in patent publication US20180355043A1.

Key:
Experiment in all cases: MSD ECL; antigen coated; protocol of Example 3
[1] = biological target: DR4G119: Human HLA-DRA1*01:02/DRB1*10:01 ECD with hemagglutinin peptide HA_304-318 (human)
[2] = biological target: DR4G104: Human HLA-DRA1*01:02/DRB1*04:02 ECD with hemagglutinin peptide HA_304-318 (human)
[3] = biological target: DR4G103: Human HLA-DRA1*01:02/DRB1*15:01 ECD with hemagglutinin peptide HA_304-318 (human)

Substance: Isotype control (antibody)
- ECL signal [1]: 517 ECL
- ECL signal [2]: 1130 ECL
- ECL signal [3]: 487 ECL
